Source: US7785835

Tests used:
vitronectin [1] = target: vitronectin (UniProt P04004); assay: competition binding assay, displacement of [^125I]-IGF-II from VN-coated wells (300 ng/well)
vitronectin [2] = target: vitronectin (UniProt P04004); assay: cell-based or functional assay

insulin-like growth factor-II, sequence (P01344 25-91 limits assumed): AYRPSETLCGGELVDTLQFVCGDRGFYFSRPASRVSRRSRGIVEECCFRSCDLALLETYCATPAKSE
vitronectin, sequence (P04004 20-478 limits assumed): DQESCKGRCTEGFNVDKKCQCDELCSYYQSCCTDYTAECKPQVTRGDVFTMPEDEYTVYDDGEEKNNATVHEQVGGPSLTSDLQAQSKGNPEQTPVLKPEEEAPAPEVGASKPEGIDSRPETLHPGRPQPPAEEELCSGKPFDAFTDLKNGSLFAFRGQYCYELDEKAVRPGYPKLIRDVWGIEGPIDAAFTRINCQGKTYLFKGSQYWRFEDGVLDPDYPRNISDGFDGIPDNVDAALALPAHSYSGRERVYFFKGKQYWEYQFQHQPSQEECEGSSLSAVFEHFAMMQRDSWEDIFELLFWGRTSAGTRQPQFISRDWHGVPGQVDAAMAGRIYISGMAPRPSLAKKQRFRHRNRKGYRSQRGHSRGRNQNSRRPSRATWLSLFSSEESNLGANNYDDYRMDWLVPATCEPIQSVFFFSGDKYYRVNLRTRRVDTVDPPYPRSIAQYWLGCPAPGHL

IC50 (vitronectin [1]): 9.6 nM
incorporation of [^3H]-leucine into protein in human keratinocytes, % above control; 3 ng IGF-II pre-bound to VN coated wells (vitronectin [2]): 19%
incorporation of [^3H]-leucine into protein in human keratinocytes, % above control; 10 ng IGF-II pre-bound to VN coated wells (vitronectin [2]): 29%
incorporation of [^3H]-leucine into protein in human keratinocytes, % above control; 30 ng IGF-II pre-bound to VN coated wells (vitronectin [2]): 39%
incorporation of [^3H]-leucine into protein in human keratinocytes, % above control; 100 ng IGF-II pre-bound to VN coated wells (vitronectin [2]): 51%
incorporation of [^3H]-leucine into protein in human keratinocytes, % above control; 300 ng IGF-II pre-bound to VN coated wells (vitronectin [2]): 70%
incorporation of [^3H]-leucine into protein in human keratinocytes, % above control; 1000 ng IGF-II pre-bound to VN coated wells (vitronectin [2]): 101%
synergistic effect in protein synthesis above the calculated additive effect of VN alone and IGF-II alone (vitronectin [2]): 5 to 46%
Substance: insulin-like growth factor-II (from UniProt P01344 25-91) (ligand)
